Assay results published in PMC12491437 (Nature Communications, 2025).
Where “and” joins values, the source holds several entries; their conditions need not be identical. Equal entries are not always repeated.

How the values were obtained:
[1] = target: D2R Y93C, FLAG-D2R-Rluc8 / FLAG-D2R-Venus (UniProt P14416); assay: FRET or BRET; β-arrestin recruitment BRET in HEK293 cells: D2R-Rluc8 donor, βarr1-YFP or βarr2-YFP acceptor, 5 μM coelenterazine-h; basal (PBS) and after quinpirole (10 μM time course over 5 min, fitted to a one-phase association; 1 nM-1 mM concentration response)
D2R V97C, FLAG-D2R-Rluc8 = D2R V97C, FLAG-D2R-Rluc8 (UniProt P14416); assay: as above
[2] = target: D2 dopamine receptor (D2R) wild type, FLAG-D2R-Rluc8 / FLAG-D2R-Venus (UniProt P14416); assay: as above
[3] = target: D2R V96C, FLAG-D2R-Rluc8 / FLAG-D2R-Venus (UniProt P14416); assay: as above
[4] = target: D2R V96S, FLAG-D2R-Rluc8 / FLAG-D2R-Venus (UniProt P14416); assay: as above
[5] = target: the molecule itself; assay: PD-PALM (single-molecule localisation microscopy, TIRF, neighbourhood analysis); cell surface FLAG-D2R on HEK293 cells labelled with anti-FLAG-CAGE500 (1:1), fixed; Getis-Franklin neighbourhood analysis, search radius 50 nm; basal or after 5 min 10 μM quinpirole

“β-arrestin-2-YFP (from UniProt P32121 1-409) (natural protein)” gave a half time of quinpirole-induced recruitment [1] of 34.6 s, an initial rate of quinpirole-induced recruitment (BRET ratio units per second) [1] of 0.000113 and a k (rate constant of quinpirole-induced recruitment, one-phase association fit) [1] of 0.00333 s⁻¹. The half time of quinpirole-induced recruitment (D2R V97C, FLAG-D2R-Rluc8) was 32.7 s, the initial rate of quinpirole-induced recruitment (BRET ratio units per second) (D2R V97C, FLAG-D2R-Rluc8) was 0.000181 and the k (rate constant of quinpirole-induced recruitment, one-phase association fit) (D2R V97C, FLAG-D2R-Rluc8) was 0.00443 s⁻¹. The half time of quinpirole-induced recruitment [2] was 68.4 s and 30.3 s and 41.1 s, the half time of quinpirole-induced recruitment [3] was 35.5 s and the initial rate of quinpirole-induced recruitment (BRET ratio units per second) [3] was 0.001. For the same molecule, the k (rate constant of quinpirole-induced recruitment, one-phase association fit) [3] was 0.02 s⁻¹, the half time of quinpirole-induced recruitment [4] was 39.4 s and the initial rate of quinpirole-induced recruitment (BRET ratio units per second) [4] was 0.0007. For the same molecule, the k (rate constant of quinpirole-induced recruitment, one-phase association fit) [4] was 0.027 s⁻¹.

B1: D2R V96S/V97C, FLAG-D2R-Rluc8 / FLAG-D2R-Venus (receptor, UniProt P14416 1-443, looked up)
chain: MDPLNLSWYDDDLERQNWSRPFNGSDGKADRPHYNYYATLLTLLIAVIVFGNVLVCMAVSREKALQTTTNYLIVSLAVADLLVATLVMPWVVYLESCGEWKFSRIHCDIFVTLDVMMCTASILNLCAISIDRYTAVAMPMLYNTRYSSKRRVTVMISIVWVLSFTISCPLLFGLNNADQNECIIANPAFVVYSSIVSFYVPFIVTLLVYIKIYIVLRRRRKRVNTKRSSRAFRAHLRAPLKGNCTHPEDMKLCTVIMKSNGSFPVNRRRVEAARRAQELEMEMLSSTSPPERTRYSPIPPSHHQLTLPDPSHHGLHSTPDSPAKPEKNGHAKDHPKIAKIFEIQTMPNGKTRTSLKTMSRRKLSQQKEKKATQMLAIVLGVFIICWLPFFITHILNIHCDCNIPPVLYSAFTWLGYVNSAVNPIIYTTFNIEFRKAFLKILHC
notes: D2 dopamine receptor; mutant made from the FLAG-D2R-Rluc8 plasmid by site-directed mutagenesis; The mutant was also moved into the FLAG-D2R-Venus plasmid for saturation BRET; also called Mut2; D2R-Rluc8 V96S/V97C; source: HEK293, transfected; in intact cells (BRET, PD-PALM) and in lysate (Western blot); not shown: FLAG, N-terminal, kept; Rluc8 (donor copy)
B1 was tested, and the “increase of receptors in oligomers relative to D2R WT” value [5] was about 6%.
